The results in this text go back to paper PMC7117912 (2020).

In general, koff refers to the first-order rate constant of dissociation. Low values mean a long-lived complex, high ones a short-lived complex.

Ends that are not written are not given here.

The target in the experiment is H2-D^b (mouse MHC I heavy chain ectodomain) refolded with human β2-microglobulin (mouse | human). Nature of the experiment: FP.

ASNC(TAMRA)NMETM [ASNC*NMETM (fluorescently labeled high-affinity peptide for H2-D^b)] returned a koff of 0.00035 s⁻¹.
